Test results taken from patent US20210238260.

Assays:
[1] = biological target: plasma purified human antithrombin III (AT-III), in complex with unfractionated heparin (UFH); assay: ratio of K0.5 for AT-III/UFH inhibition, variant over Catalyst Biosciences WT FIXa; calculated from the lower-limit K0.5

Factor X, P00742, sequence (P00742 whole entry, looked up): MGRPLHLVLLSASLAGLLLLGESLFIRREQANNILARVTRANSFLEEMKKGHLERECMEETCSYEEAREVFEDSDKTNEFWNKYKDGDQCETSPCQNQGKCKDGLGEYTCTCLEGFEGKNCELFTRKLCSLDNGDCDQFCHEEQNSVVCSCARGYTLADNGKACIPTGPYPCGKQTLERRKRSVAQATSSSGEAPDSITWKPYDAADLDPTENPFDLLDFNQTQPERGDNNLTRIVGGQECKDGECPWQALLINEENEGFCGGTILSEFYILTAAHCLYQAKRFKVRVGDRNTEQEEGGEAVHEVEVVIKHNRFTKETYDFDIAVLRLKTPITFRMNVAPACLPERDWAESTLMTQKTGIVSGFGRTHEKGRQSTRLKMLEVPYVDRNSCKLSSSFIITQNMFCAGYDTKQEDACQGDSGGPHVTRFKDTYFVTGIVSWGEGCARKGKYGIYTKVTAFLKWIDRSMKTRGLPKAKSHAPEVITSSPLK
Factor X (FX), P00742, sequence (P00742 whole entry, looked up): as above

B1: FIXa-R318Y/R338E/T343R/R403E/E410N (protein)
chain 1: YNSGKLEEFVQGNLERECMEEKCSFEEAREVFENTERTTEFWKQYVDGDQCESNPCLNGGSCKDDINSYECWCPFGFEGKNCELDVTCNIKNGRCEQFCKNSADNKVVCSCTEGYRLAENQKSCEPAVPFPCGRVSVSQTSKLTR
chain 2: VVGGEDAKPGQFPWQVVLNGKVDAFCGGSIVNEKWIVTAAHCVETGVKITVVAGEHNIEETEHTEQKRNVIRIIPHHNYNAAINKYNHDIALLELDEPLVLNSYVTPICIADKEYTNIFLKFGSGYVSGWGRVFHKGYSALVLQYLRVPLVDRATCLESTKFRIYNNMFCAGFHEGGRDSCQGDSGGPHVTEVEGTSFLTGIISWGEECAMKGKYGIYTKVSEYVNWIKNKTKLT
KM (Factor X (FX), P00742): 0.0223 µM
catalytic activity (kcat/KM) for activation of FX (Factor X (FX), P00742): displayed some of the greatest increases in catalytic activity
kcat of FX activation by FIXa (Xase complex with FVIIIa, PC/PS vesicles, Ca2+) (Factor X (FX), P00742): 9.7 s⁻¹
% of WT kcat/KM (Factor X, P00742): 1217%
kcat (Factor X, P00742): 11.8 s⁻¹
kcat/KM (Factor X, P00742): 5.4e+08 M⁻¹ s⁻¹
K0.5-mut/K0.5-wt [1]: > 517 fold
